The source of these data is IntAct's records for PubMed 23386062.

First the molecules themselves.
B1: Ras-related protein Rab-4B (Rattus norvegicus (Rat)), P51146 (parent)
chain: MAETYDFLFKFLVIGSAGTGKSCLLHQFIENKFKQDSNHTIGVEFGSRVVNVGGKTVKLQIWDTAGQERFRSVTRSYYRGAAGALLVYDITSRETYNSLAAWLTDARTLASPNIVVILCGNKKDLDPEREVTFLEASRFAQENELMFLETSALTGENVEEAFLKCARTILNKIDSGELDPERMGSGIQYGDISLRQLRQPRSAQAVAPQPCGC
B2: Ras-related protein Rab-9A (Homo sapiens), P51151 (parent)
chain: MAGKSSLFKVILLGDGGVGKSSLMNRYVTNKFDTQLFHTIGVEFLNKDLEVDGHFVTMQIWDTAGQERFRSLRTPFYRGSDCCLLTFSVDDSQSFQNLSNWKKEFIYYADVKEPESFPFVILGNKIDISERQVSTEEAQAWCRDNGDYPYFETSAKDATNVAAAFEEAVRRVLATEDRSDHLIQTDTVNLHRKPKPSSSCC

The variants in the first test derive from B1. Conditions: with nisch_human NISCH.
In the case of S22N, the “effect of a mutation on the interaction” value is listed as “disrupting interaction”.

Variants of B2 are the subject of another test. Particulars: with nisch_human NISCH.
Take S21D: the “effect of a mutation on the interaction” value is on record as “disrupting interaction”.
